Results on 33 molecules are retold here after patent publication US20210355194A1 (TWIST BIOSCIENCE, published 2021).

Substitutions are numbered along the chain they refer to.

As usually defined, the Kd is the constant that tells how readily two partners part at equilibrium. A lower Kd goes with a tighter complex.

The chains are these.
B1: variant 6-6 (Fc fusion)
VHH: EVQLVESGGGLVQPGGSLRLSCAASGTTLDYYAMGWFRQAPGKERELVAAISWSGGSTAYADSVKGRFTISADNSKNTAYLQMNSLKPEDTAVYYCAREDYYDSSGYSWGQGTLVTVSS
B2: variant 6-46 (Fc fusion)
VHH: EVQLVESGGGLVQPGGSLRLSCAASGLTFSAMGWFRQAPGKEREFVALIRRDGSTIYADSVKGRFTISADNSKNTAYLQMNSLKPEDTAVYYCAALGILFGYDAFDIWGQGTLVTVSS
B3: variant 6-44 (Fc fusion)
VHH: EVQLVESGGGLVQPGGSLRLSCAASGGTFGVYHMGWFRQAPGKEREFIGRITWTDGSTYYADSVKGRFTISADNSKNTAYLQMNSLKPEDTAVYYCFGLLEVYDMTFDYWGQGTLVTVSS
B4: variant 6-43 (Fc fusion)
VHH: EVQLVESGGGLVQPGGSLRLSCAASGRTFSSYAMMGWFRQAPGKEREFVASVNWDASQINYADSVKGRFTISADNSKNTAYLQMNSLKPEDTAVYYCTTLGAVYFDSSGYHDYFDYWGQGTLVTVSS
B5: variant 5-20 (Fc fusion)
VHH: EVQLVESGGGLVQPGGSLRLSCAASGRTIVPYTMGWFRQAPGKERELVAAISPSAFTEYADSVKGRFTISADNSKNTAYLQMNSLKPEDTAVYYCAARRWGYDWGQGTLVTVSS
B6: variant 6-20 (Fc fusion)
VHH: EVQLVESGGGLVQPGGSLRLSCAASGSTLPYHAMGWFRQAPGKEREFVAAITWNGASTSYADSVKGRFTISADNSKNTAYLQMNSLKPEDTAVYYCARDRYYDTSASYFESETWGQGTLVTVSS
B7: variant 6-39 (Fc fusion)
VHH: EVQLVESGGGLVQPGGSLRLSCAASGFTFSPSWMGWFRQAPGKEREFVAAISWSGGSTAYADSVKGRFTISADNSKNTAYLQMNSLKPEDTAVYYCHGLGEGDPYGDYEGYFDLWGQGTLVTVSS
B8: variant 6-78 (Fc fusion)
VHH: EVQLVESGGGLVQPGGSLRLSCAASGRTYDAMGWFRQAPGKEREFVASVTSGGYTHYADSVKGRFTISADNSKNTAYLQMNSLKPEDTAVYYCAKFGRKIVGATELDYWGQGTLVTVSS
B9: variant 6-26 (Fc fusion)
VHH: EVQLVESGGGLVQPGGSLRLSCAASGDTFSTSWMGWFRQAPGKEREFVATINTGGGTNYADSVKGRFTISADNSKNTAYLQMNSLKPEDTAVYYCARVTTSFDYWGQGTLVTVSS
B10: variant 6-30 (Fc fusion)
VHH: EVQLVESGGGLVQPGGSLRLSCAASGFAFGDSWMGWFRQAPGKEREFVATINWSGVTAYADSVKGRFTISADNSKNTAYLQMNSLKPEDTAVYYCARADGYFDYWGQGTLVTVSS
B11: variant 6-77 (Fc fusion)
VHH: EVQLVESGGGLVQPGGSLRLSCAASGFTFDRSWMGWFRQAPGKEREFVAAVTEGGTTSYADSVKGRFTISADNSKNTAYLQMNSLKPEDTAVYYCARADYDFDYWGQGTLVTVSS
B12: variant 6-5 (Fc fusion)
VHH: EVQLVESGGGLVQPGGSLRLSCAASGRTFTMGWFRQAPGKEREFVASTNSAGSTNYADSVNGRFTISADNSKNTAYLQMNSLKPEDTAVYYCTTVDQYFDYWGQGTLVTVSS
B13: variant 5-1 (Fc fusion)
VHH: EVQLVESGGGLVQPGGSLRLSCAASGGTFSSIGMGWFRQAPGKEREFVAAISWDGGATAYADSVKGRFTISADNSKNTAYLQMNSLKPEDTAVYYCAKEDVGKPFDWGQGTLVTVSS
B14: variant 6-13 (Fc fusion)
VHH: EVQLVESGGGLVQPGGSLRLSCAASGLTFNDYAMGWFRQAPGKEREFVAHIPRSTYSPYYADSVKGRFTISADNSKNTAYLQMNSLKPEDTAVYYCAFLVGPQGVDHGAFDVWGQGTLVTVSS
B15: variant 5-67 (Fc fusion)
VHH: EVQLVESGGGLVQPGGSLRLSCAASGFNVNDYAMGWFRQAPGKEREFVAGITSSVGVTNYADSVKGRFTISADNSKNTAYLQMNSLKPEDTAVYYCAADIFFVNWGRGTLVTVSS
B16: variant 5-63 (Fc fusion)
VHH: EVQLVESGGGLVQPGGSLRLSCAASGFSLDYYDMGWFRQAPGKEREFVAALGWSGGSTDYADSVKGRFTISADNSKNTAYLQMNSLKPEDTAVYYCAAGNGGRYGIVERWGQGTLVTVSS
B17: variant 6-82 (Fc fusion)
VHH: EVQLVESGGGLVQPGGSLRLSCAASGSSLDAYGMGWFRQAPGKEREFVAAISWGGGSIYYADSVKGRFTISADNSKNTAYLQMNSLKPEDTAVYYCARLSQGMVALDYWGQGTLVTVSS
B18: variant 6-42 (Fc fusion)
VHH: EVQLVESGGGLVQPGGSLRLSCAASGDTYGSYWMGWFRQAPGKEREFVAVITSGGSTNYADSVKGRFTISADNSKNTAYLQMNSLKPEDTAVYYCTHVQNSYYYAMDVWGQGTLVTVSS
B19: variant 6-34 (Fc fusion)
VHH: EVQLVESGGGLVQPGGSLRLSCAASGSAFRSNAMGWFRQAPGKEREFVAHISWSSKSTYYADSVKGRFTISADNSKNTAYLQMNSLKPEDTAVYYCATYCSSTSCFDYWGQGTLVTVSS
B20: variant 5-32 (Fc fusion)
VHH: EVQLVESGGGLVQPGGSLRLSCAASGFTPDNYAMGWFRQAPGKEREFVAALGWSGVTTYHYYADSVKGRFTISADNSKNTAYLQMNSLKPEDTAVYYCASDESDAANWGQGTLVTVSS
B21: variant 6-55 (Fc fusion)
VHH: EVQLVESGGGLVQPGGSLRLSCAASGFTMSSSWMGWFRQAPGKEREFVARITSGGSTGYADSVKGRFTISADNSKNTAYLQMNSLKPEDTAVYYCASVDGYFDYWGQGTLVTVSS
B22: variant 6-52 (Fc fusion)
VHH: B21 VHH with F27D, M29Y, S30G, S32Y, F47V, R50A, G58V, S97R, G100S, Y101R
B23: variant 6-37 (Fc fusion)
VHH: EVQLVESGGGLVQPGGSLRLSCAASGHTFSTSWMGWFRQAPGKEREFVATINSLGGTNYADSVKGRFTISADNSKNTAYLQMNSLKPEDTAVYYCARVSSGDYGMDVWGQGTLVTVSS
B24: variant 6-60 (Fc fusion)
VHH: EVQLVESGGGLVQPGGSLRLSCAASGDTYGSYWMGWFRQAPGKEREFVATISQSGAATAYADSVKGRFTISADNSKNTAYLQMNSLKPEDTAVYYCAGLLRYSGTYYDAFDVWGQGTLVTVSS
B25: variant 6-103 (Fc fusion)
VHH: EVQLVESGGGLVQPGGSLRLSCAASGRTSSPIAMGWFRQAPGKEREPVAVRWSDDYTYYADSVKGRFTISADNSKNTAYLQMNSLKPEDTAVYYCAKKLGGYYAFDIWGQGTLVTVSS
B26: variant 6-58 (Fc fusion)
VHH: EVQLVESGGGLVQPGGSLRLSCAASGRAVSTYAMGWFRQAPGKEREFVAAISGSENVTSYADSVKGRFTISADNSKNTAYLQMNSLKPEDTAVYYCLSVTGDTEDYGVFDTWGQGTLVTVSS
B27: variant 6-22 (Fc fusion)
VHH: EVQLVESGGGLVQPGGSLRLSCAASGRTFSEVVMGWFRQAPGKEREFVATIHSSGSTSYADSVKGRFTISADNSKNTAYLQMNSLKPEDTAVYYCVRVTSDYSMDSWGQGTLVTVSS
B28: variant 6-45 (Fc fusion)
VHH: EVQLVESGGGLVQPGGSLRLSCAASGNMFSINAMGWFRQAPGKEREFVTLISWSSGRTSYADSVKGRFTISADNSKNTAYLQMNSLKPEDTAVYYCASLGYCSGGSCFDYWGQGTLVTVSS
B29: variant 6-102 (Fc fusion)
VHH: EVQLVESGGGLVQPGGSLRLSCAASGSSFSAYAMGWFRQAPGKEREFVSAIDSEGTTTYADSVKGRFTISADNSKNTAYLQMNSLKPEDTAVYYCAGDYNFWSGFDHWGQGTLVTVSS
B30: variant 6-106 (Fc fusion)
VHH: EVQLVESGGGLVQPGGSLRLSCAASGIPSTLRAMGWFRQAPGKEREFVAATSWSGGSKYYADSVKGRFTISADNSKNTAYLQMNSLKPEDTAVYYCATDLYYMDVWGQGTLVTVSS
B31: variant 6-112 (Fc fusion)
VHH: EVQLVESGGGLVQPGGSLRLSCAASGGTFSAYHMGWFRQAPGKERELVTIIDNGGPTSYADSVKGRFTISADNSKNTAYLQMNSLKPEDTAVYYCTALLYYFDNSGYNFDPFDIWGQGTLVTGSS
B32: variant 6-108 (Fc fusion)
VHH: EVQLVESGGGLVQPGGSLRLSCAASGGTFGSYGMGWFRQAPGKEREFVAAIRWSGGITYYADSVKGRFTISADNSKNTAYLQMNSLKPEDTAVYYCARERYWNPLPYYYYGMDVWGQGTLVTVSS
B33: variant 6-103 (Fc fusion)
VHH: B25 VHH

The target in one experiment is CV S-protein construct 6 trimer TP31001F (SARS-CoV-2, UniProt P0DTC2 14-1208). Description: SPR.
The molecule B1 showed a Kd of 67.7 nM. In other words, the double-digit nanomolar range.

Turning to B2, the Kd was 1.9 nM. This Kd lies about 36-fold lower than the previous one. B3 registered a Kd of 0.9 nM. On the same count and under the same terms, in the case of B4 it was 0.7 nM; in that of B5, 1.1 nM; in that of B6, 0.3 nM. In turn, B7 yielded a Kd of 0.1 nM. In the case of B8, the equilibrium dissociation constant (Kd) was 0.4 nM. The molecule B9 had a dissociation constant (Kd) of 0.07 nM. B10 had a dissociation constant (Kd) of 0.1 nM. Same read-out and setting: to B11 belongs 3.5 nM; to B12, 0.8 nM; to B13, 0.4 nM. B14: binding was put at a Kd of 0.6 nM. As for B15, binding was put at a Kd of 1 nM. Turning to B16, the dissociation constant Kd came to 0.4 nM.

As to B17, the affinity, expressed as Kd, was 0.6 nM.

As to B18, binding was put at a Kd of 7.8 nM.

B19 yielded a dissociation constant Kd of 0.7 nM. The molecule B20 returned a Kd of 0.1 nM.

B21: the Kd amounted to 0.3 nM. Same read-out and setting: to B22 belongs 1.1 nM; to B23, 0.7 nM. In turn, B24 registered a Kd of 0.1 nM.

In the case of B25, the affinity, expressed as Kd, was 1 nM. Molecule B26 gave a Kd of 1 nM. For the molecule B27, the equilibrium dissociation constant (Kd) was 1.8 nM.

Molecule B28 returned a Kd of 1.3 nM. The Kd values of the last two molecules are within 1.5-fold of each other.

The next experiment has the same target. In words: SPR. This is another data set of the same source. For orientation: Surface plasmon resonance follows binding to a sensor surface in real time, without labels.
Regarding B29, the equilibrium dissociation constant (Kd) was determined as 0.9 nM.

Regarding B30, the Kd was 1070 nM. B31: the dissociation constant Kd was determined as 43.8 nM. B32: binding was put at a Kd of 0.3 nM. The molecule B33 had a Kd of 1 nM.
